Results taken from patent US5763571A, “Inhibiting protein interactions” (The General Hospital Corporation, priority 1995, dated 1998).

B1: V12Grap-1b: Rap 1b low molecular weight GTP binding protein variant, GAL4 fusion (protein)
chain: ANFNQSGNIADSSLSFTFTNSSNGPNLITTQTNSQALSQPIASSNVHDNFMNNEITASKIDDGNNSKPLSPGWTDQTAYNAFGITTGMFNTTTMDDVYNYLFDDEDTPPNPKKEMREYKLVVLGSVGVGKSALTVQFVQGIFVEKYDPTIEDSYRKQVEVDAQQCMLEILDTAGTEQFTAMRDLYMKNGQGFALVYSITAQSTFNDLQDLREQILRVKDTDDVPMILVGNKCDLEDERVVGKEQGQNLARQWNNCAFLESSAKSKINVNEIFYDLVRQINRKTPVPGKARKKSSCQLL
B2: V12Grap-1bΔCT: V12Grap-1b lacking the carboxyterminal 4 amino acids (protein)
chain: ANFNQSGNIADSSLSFTFTNSSNGPNLITTQTNSQALSQPIASSNVHDNFMNNEITASKIDDGNNSKPLSPGWTDQTAYNAFGITTGMFNTTTMDDVYNYLFDDEDTPPNPKKEMREYKLVVLGSVGVGKSALTVQFVQGIFVEKYDPTIEDSYRKQVEVDAQQCMLEILDTAGTEQFTAMRDLYMKNGQGFALVYSITAQSTFNDLQDLREQILRVKDTDDVPMILVGNKCDLEDERVVGKEQGQNLARQWNNCAFLESSAKSKINVNEIFYDLVRQINRKTPVPGKARKKSS

Target: T1, Raf(1-257) (Homo sapiens, UniProt P04049)
T1 construct: expressed in transfected cells; host or cells: yeast strain GGY1::171, plasmid pMA424
Assay: Yeast two-hybrid GAL4/lacZ interaction with Raf(1-257)
Assay type: cell-based
Conditions: X-gal plates
Experimental: Detection of protein-protein interactions using the two-hybrid system in yeast was carried out as follows. The vector pMA424 (Chien C. T., Bartel P. L., Sternglanz, R., Fields, S., Proc. Natl. Acad. Sci. U.S.A. 88, 9578-9582 (1991)) containing either Raf(1-257) or Raf(1-257, C168 →S) DNA sequences fused in frame with the sequences encoding GAL4 (1-147), was cotransformed into yeast together with the pACTII vector containing no insert as a control, or DNA sequences encoding V12GrasH, V12GrasHΔCT, murine rap1b, or rap1bΔCT fused in frame with the GAL4 transactivation domain II. […]
The DNA sequences encoding Raf(1-257) and Raf(1-257, C168 →S) were prepared by the PCR using the plasmids RSV-C4 and RSV-PM17 (Bruder, J. T., Heidecker, G. & Rapp, U.R. Genes Dev. 6, 545-556 (1992)) respectively as templates. […] The reading frame and the C168 →S mutation were verified by DNA sequencing. […] Transformants were grown on SDHis-Leu-plates as in (Durfee, T. et al. Genes Develop. 7, 555-569 (1993); Chien C. T., Bartel P. L., Sternglanz, R., Fields, S., Proc. Natl. Acad. Sci. U.S.A. 88, 9578-9582 (1991)) for 3 days before replica plating to X-gal containing plates, which in turn were scored for blue colonies 72 hours later.
Ras effector domain mutants which impair the interaction between V12GrasHΔCT and Raf(1-257) were analyzed as follows. […]

Molecule | lacZ expression on coexpression with wild-type Raf(1-257) (in words)
B1 | interact strongly
B2 | interact strongly
